Experimental data from patent US9090686B2, “Antibodies for the treatment of HIV” (Pierre Fabre Medicament, priority 2009, dated 2015).

B1: 515H7: murine anti-CXCR4 monoclonal antibody; light chain variable domain SEQ ID No. 7, heavy chain variable domain SEQ ID No. 8 (antibody, listed as Mus musculus, V domains shown)
VH: EVNLVESGGGLVQPGGSLRLSCATSGFTFTDNYMSWVRQPPGKALEWLGFIRNKANGYTTDYSASVRGRFTISRDNSQSILYLQMNALRAEDSATYYCARDVGSNYFDYWGQGTTLTVSS
VL: DIVMSQSPSSLAVSAGEKVTMSCKSSQSLFNSRTRKNYLAWYQQKPGQSPKLLIYWASARDSGVPARFTGSGSETYFTLTISRVQAEDLAVYYCMQSFNLRTFGGGTKLEIK
B2: c515H7: chimeric antibody 515H7: murine variable domains fused to human Ckappa and IgG1/IgG2/IgG4 constant domains; isotype tested not stated (antibody, V domains shown)
VH: B1 VH
VL: B1 VL

What was measured:
Format in all cases: cell-based
[1] = tested on: X4 HIV-1 LAI virus; assay: GHOST cells expressing CD4 and CXCR4 infected with X4 HIV-1 LAI virus
Description: (§1) In order to determine the specificity of CXCR4 515H7 Mab, we evaluated the anti-HIV-1 activity of this Mab using GHOST cells expressing CD4 and CXCR4 or CCR5.
(§2) This assay is performed in 48 h using either the X4 HIV-1 LAI virus (with Ghost cells expressing CXCR4) or the R5 HIV-1 BaL virus (with Ghost cells expressing CCR5). 500 μl of Ghost cells were plated (2.5 10^5 cells/ml) for 24 h in Dulbecco culture medium supplemented with 10% FCS. Various dilutions of Mab 515H7 were incubated for 1 h at 37° C. and then diluted HIV-1 LAI virus ( 1/10) and HIV-1 BaL virus ( 1/7) were added to the cells for 48h. Cells were submitted to trypsin and washed with PBS 1×. 300 μL of 1.5% paraformaldehyde were added to the cell pellets for 2 h at +4° C. in the dark, in order to fix the cells and to inactivate viruses. GFP-positive cells were analyzed by flow cytometry and inhibition of HIV-1 infection was calculated.
(§3) The percent of inhibition of infected cells was defined as […] with control infected wells with no Mab.

[2] = tested on: R5 HIV-1 BaL virus; assay: GHOST cells expressing CD4 and CCR5 infected with R5 HIV-1 BaL virus
Description: as §1, §2, §3

[3] = tested on: HIV-1 primary isolate 89.6 (dual X4/R5 virus); assay: Neutralization assay, multiple rounds of replication on primary PBMC, isolate 89.6; details: 90% decrease of viral titer
Description: This assay that combines serial dilutions of c515H7 Mab or Maraviroc or combination of both with serial dilutions of virus, analyzes multiple rounds of infection on PBMC (peripheral blood mononuclear cells). Briefly, quadruplicate 25-μl aliquots of serial dilutions (twofold) of c515H7 Mabs or Maraviroc or combination of both were each incubated with 25 μl of serial dilutions of virus in prehydrated 96-well filter plates (1.25-μm pore size, Durapor Dv; Millipore, Molsheim, France). A control titration of the virus (25 μl of RPMI replacing the diluted c515H7 Mabs or Maraviroc) was performed on the same plate as the titrations in the presence of dilutions of the c515H7 Mabs or Maraviroc or combination of both. After 1 h at 37° C., 25 μl of PHA-stimulated PBMC at a concentration of 4×10^6 cells/ml (pool of PHA activated PBMC from five healthy donors) was added to achieve a 75-μl final culture volume of RPMI, 10% fetal calf serum (FCS), and 20 IU of interleukin-2 (IL-2) per ml (R&D System). After 24 h at 37° C., 100 μl of the same culture medium was added. Two washings (200 μl of RPMI each) were performed by filtration on day 4 to remove the c515H7 Mabs and Maraviroc, and 200 μl of fresh culture medium was added. On day 7, the presence of p24 in the culture supernatants was measured by ELISA and compared to that of the negative controls (cultures infected with dilutions of virus and maintained in the presence of 10^−6 M zidovudine [AZT]) to determine positive wells. […]
This assay that combines serial dilutions of hz515H7 Mab or Maraviroc or combination of both with serial dilutions of virus, analyzes multiple rounds of infection on PBMC (peripheral blood mononuclear cells). […] On day 7, the presence of p24 in the culture supernatants was measured by ELISA and compared to that of the negative controls (cultures infected with dilutions of virus and maintained in the presence of 10^−6 M zidovudine [AZT]) to determine positive wells. […]

Molecule	inhibition of HIV-1 X4 Lai virus infection in CXCR4 expressing Ghost cells (in words) [1]	GHOST CXCR4/LAI virus % inhibition of infected cells 80 ([1]; IC for 80% inhibition) [µg/mL]	inhibition of HIV-1 R5 BaL virus infection in CCR5 expressing Ghost cells (in words) [2]	IC90 of c515H7 with addition of Maraviroc ([3]; Maraviroc at 2 μg/ml added) [µg/mL]	IC90 ([3]; single agent, multiple rounds, day 7 p24 ELISA) [µg/mL]
B1	able to inhibit	0.1	totally inactive	–	–
B2	–	–	–	0.2	2
